Test results: PMC8985661

Tests used:
[1] = target: microtubules (MTs; α-tubulin/β-tubulin) (UniProt P02554)
[2] = target: microtubules (MTs; α-tubulin/β-tubulin) (UniProt P02554); assay: other fluorescence titration; fluorescently labeled MAP7 on MTs at different concentrations, fluorescence intensity fit to the Hill equation; 150 mM KAc

half-max inhibition constant of the run frequency of dynein-dynactin-BicDR1 (DDR) on MTs against MAP7 concentration (blocks dynein on MTs); 150 mM KAc [1]: 10 nM
Kd [2]: 111 nM
Substance: full-length (FL) MAP7 (from UniProt Q14244 1-749) (natural protein)
